Assay results from the supplement of paper PMC7125110.
± gives the standard error. Variants at the floor of the assay were thinned out.

B1: glmS ribozyme (parent)
chain: AUAAAAGCGCCAGAACUACAGAAAUGUAGUUGACGAGGAGGAGGUUUAUCGAAUUUUCGGCGGAUGCCUCCAAA

Tests used:
Settings in all cases: with glucosamine-6-phosphate
glucosamine-6-phosphate [1] = variants of: B1; test: self-cleavage kobs at 640 uM GlcN6P; higher = faster cleavage; RNA array
In short: (§1)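 In situ transcription by E. coli RNA polymerase produced barcoded ribozyme variants on sequenced MiSeq chips, and a hybridised Cy3 probe tracked them at 37 °C. Glucosamine-6-phosphate was flowed in at 40 μM to 10 mM in HEPES/KCl/Mg(OAc)2 buffer. kcat and KM were taken from weighted Michaelis–Menten fits of kobs values from exponential decay fits.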

glucosamine-6-phosphate [2] = variants of: B1; test: self-cleavage kobs at 10000 uM GlcN6P; higher = faster cleavage; RNA array
In short: as §1

glucosamine-6-phosphate [3] = variants of: B1; test: self-cleavage kobs at 2500 uM GlcN6P; higher = faster cleavage; RNA array
In short: as §1

| Variant | self-cleavage kobs at 640 uM GlcN6P (glucosamine-6-phosphate [1]) [s⁻¹] | self-cleavage kobs at 10000 uM GlcN6P (glucosamine-6-phosphate [2]) [s⁻¹] | self-cleavage kobs at 2500 uM GlcN6P (glucosamine-6-phosphate [3]) [s⁻¹] |
| --- | --- | --- | --- |
| AUAAAAGCGCCAGAACUACAGAAAUGUCGUUGACGAGGAGGAGGUUUAUCGAAUUUUCGGCGGAUGCCUCCAAA | 0.0103 ± 0.0026 | 0.0679 ± 0.022 |  |
| AUAAAAGCGCAAGAACUACAGAAAUGUAGUUCACGAGGAGUAGGUUUAUCGUAUUUUCGGCGGAUGCCUCCAAA | < 1e-05 |  |  |
| AUAAAAGCGCUAGAACUACAGAAAUGUAGUUCACGGGGAGGAGGUUUAUCGAAUUUUCGGCGGAUGCCUCCAAA | < 1e-05 | < 1e-05 | < 1e-05 |
| AUAAAAGCGCCAGAACUACAGAAAUGUAGCAGACGAGGAGGAGGAUUAUCGAAUUUUCGGCGGAUGCCUCCAAA | 0.00111 ± 0.00052 |  | 0.000661 ± 0.0003 |
| AUAAAAGCGCCAGAACUACAGAAAUGUAGUUGACGAUGAGGAGGUUUGUCGAAUUUUCGGCGGAUGCCUUCAAA | < 1e-05 |  |  |
| AUAAAAGCACCACAACUACAGAAAUGUAGUUGACGAGGAGGAGGUUUAUCGAAUUUCCGGCGGAUGCCUCCAAA | < 1e-05 |  | < 1e-05 |
| AUAAAAGCGCCAGAACUACAGAAAUGUAGUUGACGAGGAGGAGGUUUAUCCAAUUUUCGGCGGCUGCCUCCAAA | < 1e-05 | < 1e-05 |  |
| AUAAAAGGGCCAGAACUACAGAAAUGUAGUUGACGUGGAGGAGGUUUAUCGAAUUUUCGGCGGAUGCCUUCAAA | < 1e-05 |  |  |
| AUAAAAGCGCCGGAACUACAGAAAUGUAGUUGACGAGGAGGAGUUUUAUCGAAUUUUCGGCGGAUGCCUGCAAA | < 1e-05 |  | < 1e-05 |
| AUAAAAGCAACAGAACUACAGAAAUGUAGCUGACGAGGAGGAGGUUUAUCGAAUUUUCGGCGGAUGCCUCCAAA | < 1e-05 |  | < 1e-05 |
| AUAAAAGCGCCAGAAUUACAGAAAUGUAGUUGACGAGGAGGAGGUUUAUCGAAUUUUCCGCGGAGGCCUCCAAA | < 1e-05 |  | < 1e-05 |
| AUAAAAGCGCCAGAACUACAGAAAUGUAUUUGAUGAGGAUGCGGUUUAUCGAAUAUUCGGCGGAUUCCUCCAAA | < 1e-05 |  | < 1e-05 |
| AUAAAAGCGCCAGAACUACAGAAAUGUAGUUAACGAGGAGGAGGUUUAGCGAAUUUUGGGCGUAUGCCGCCAAA | 0.000279 ± 9.2e-05 |  | 0.000153 ± 3.7e-05 |
| AUAAAAGCGUCAGAACUACAGAAAUGUAGUUGACGAGGAGGAGGUUUAUCGAAUUUUCGGCGCAGGCCUAAAAA | 0.000118 ± 4.2e-05 | < 1e-05 |  |
| AUAAAAGCGCCAGAACUACAGAAAUGUAAAUGACGAGGAGGGGGUUUAUCGAGUUUUCGGCGGAUGCCUCCAAA | 9.25e-05 ± 2.3e-05 |  |  |
| AUAAAAGCGCCAGAACUACAGAAAUGUAUUUGACGAUGAGGAGGUUUAUCCAAUUUUCGGCGGAUGCUUCGAAA | 4.89e-05 ± 1.7e-05 |  |  |
| AUAAAAGCGCCAGAACUACAGAAAUGUAGUGGACGAGGAGGAGGUUUAUCGAAUUUUGGGCGGUUGCCUCCAAA | < 1e-05 |  |  |
| AUAAAAGCGCCAGAACUACAGAAAUGUAGAUGACGUGGAGGAGGUUUAUCGAAUUUUCGGCGGAUGCCUGCAAA | 0.000179 ± 6.1e-05 | 3.78e-05 ± 1.7e-05 | 0.000108 ± 4.4e-05 |
| AUAAAAGCGCCAGGACUACAGAAAUGUAGUGGACGAGGAGGAGGUUUAUGGAAUUUUCGGCGGAUGCCUCCAAA | 0.000132 ± 3.6e-05 |  |  |
| AUAAAAGCGCCAGAACUACAGAAAUGUAUUUGACGAGGAGGAGGUUUAUCGAAUUUUAGGCGGAUGCAUCCAAA | 0.000121 ± 3.2e-05 |  | 3.43e-05 ± 1.5e-05 |
| AUAAAAGCGCCAGAACUACAGAAAUGUAGCUCACGAGGAGGAGGUUUAUCGAAUAUUCGGCGGAUGCCUCCAAA | 8.42e-05 ± 1.7e-05 |  | 0.000128 ± 3.1e-05 |
